Source: patent publication EP4455161A1 (ONO Pharmaceutical Co., Ltd., dated 2024)

Experiments:
[1] = biological target: T1, recombinant human full length CRMP1 (human, UniProt Q14194 1-572); assay: direct ELISA, recombinant human CRMP1-5 coated at 5 µg/mL
T1 construct: mature

[2] = biological target: T2, CRMP2 peptide H-EVSVTPKTVTPASSAKTSPAKQQC-NH2 (C-terminal amide); assay: ELISA
T2 peptide: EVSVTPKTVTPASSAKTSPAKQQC

[3] = biological target: T3, CRMP2 peptide TVTPASSAKTSPAKQQAPPVRC-NH2 (C-terminal amide); assay: ELISA
T3 peptide: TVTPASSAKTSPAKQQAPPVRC

[4] = biological target: T4, pCRMP2 peptide H-TVTPASSAKT(pS)PAKQQAPPVRC-NH2 (phosphoserine at S522 (CRMP2 numbering); C-terminal amide); assay: ELISA
T4 construct: also called pCRMP2 peptide containing a single S522 phospho-site
T4 peptide: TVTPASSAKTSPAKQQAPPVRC

[5] = biological target: T5, pCRMP2 peptide H-EVSV(pT)PKTV(pT)PASSAKT(pS)PAKQQC-NH2 (phosphothreonine at T509 and T514, phosphoserine at S522 (CRMP2 numbering); C-terminal amide); assay: ELISA
T5 construct: also called pCRMP2 peptide containing three phospho-sites T509, T514 and S522
T5 peptide: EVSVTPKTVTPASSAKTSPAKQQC

[6] = biological target: T6, Peptide 4152963: …(p)S522PAKQQA (phosphoserine at S522 (CRMP2 numbering)); assay: direct ELISA on coated peptide (Fig. 5)
T6 construct: also called CRMP2 peptide with phosphorylation at S522

[7] = biological target: T7, Peptide 4152961: VCEVSV(p)T509… (phosphothreonine at T509 (CRMP2 numbering)); assay: direct ELISA on coated peptide (Fig. 5)
T7 construct: also called CRMP2 peptide with phosphorylation at T509

[8] = biological target: T8, Peptide 4152960: …; assay: direct ELISA on coated peptide (Fig. 5)
T8 construct: also called non-phosphorylated CRMP2 peptide

[9] = biological target: T9, CRMP2 peptide 128 (TPKTVTPASSAKTSP) (human); assay: overlapping peptide array
T9 construct: 15-mer spotted on a cellulose membrane array
T9 peptide: TPKTVTPASSAKTSP

[10] = biological target: T10, CRMP2 peptide 129 (VTPASSAKTSPAKQQ) (human); assay: overlapping peptide array
T10 construct: 15-mer spotted on a cellulose membrane array
T10 peptide: VTPASSAKTSPAKQQ

T1 sequence (Q14194 whole entry): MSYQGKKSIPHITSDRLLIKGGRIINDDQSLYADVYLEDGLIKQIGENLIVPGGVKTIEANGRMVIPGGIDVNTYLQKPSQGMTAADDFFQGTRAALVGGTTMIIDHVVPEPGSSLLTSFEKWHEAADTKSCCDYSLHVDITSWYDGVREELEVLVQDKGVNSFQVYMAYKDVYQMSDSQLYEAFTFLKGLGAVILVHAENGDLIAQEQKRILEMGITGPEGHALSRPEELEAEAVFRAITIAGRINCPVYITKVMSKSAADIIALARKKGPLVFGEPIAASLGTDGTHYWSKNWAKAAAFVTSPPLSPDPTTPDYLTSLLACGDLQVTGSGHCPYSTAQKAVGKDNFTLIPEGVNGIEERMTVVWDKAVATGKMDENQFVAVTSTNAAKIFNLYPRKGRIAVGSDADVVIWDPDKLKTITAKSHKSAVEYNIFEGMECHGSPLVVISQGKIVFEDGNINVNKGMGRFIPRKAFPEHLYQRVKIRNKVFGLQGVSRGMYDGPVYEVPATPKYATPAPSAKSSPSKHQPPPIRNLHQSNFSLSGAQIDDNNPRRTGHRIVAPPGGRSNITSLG

B1: NI-504.3E7 (antibody, human IgG1, V domains shown)
VH: EVQLVETGGGFVQPGGSLQLSCAVSGFPYSGTSFHWVRQVSGKGLEWIGRIRSKSDNYETSYTESLKGRFIVSRDDSKNMVRLHLYSLRTEDTALYYCTTGIIVVDTSYLDHWGRGTLVTVSS
VL: SYELTQPPSASVSPGQTARITCSGAALPKKYAYWYQLKSGQAPVLVIYEDTKRPSGIPERFSGSSSGTLATLTINGALVEDEADYYCYSTDSSGDVWVFGGGTKLTVL
notes: VH_3E7 + VL_3E7
- EC50 [1]: 0.069 µM
- binding result [2]: binds
- binding result [3]: binds
- binding result [4]: binds
- binding result [5]: binds
- binding result [6]: binds
- binding result [7]: binds
- binding result [8]: binds
- binding result [9]: binds
- binding result [10]: binds
